In article PMC12302338, “Functional genomics and structural insights into maize aldo-keto reductase-4 family: Stress metabolism and substrate specificity in embryos” (The Journal of Biological Chemistry, 2025) one finds Km, kcat and kcat/Km data, which are given here for 1 protein.

Assay in all cases: purified protein
Holding throughout (conditions): 0.25 mM NADPH, 50 mM sodium phosphate pH 7.0, 30 °C, reduction

Substrate in data set [1]: O=CC(O)CO
Substrate in data set [2]: O=Cc1ccc([N+](=O)[O-])cc1
The format is biochemical, Zea mays.

Substrate in data set [3]: CC(=O)C=O
In kind it is biochemical, Zea mays.

B1: ZmAKR4C13 (Zea mays) (protein)
chain: MASAQAVGQGERGHFVLKSGHTIPAVGLGTWRAGSDTAHSVRTAIAEAGYRHVDTAAQYGVEKEVGRGLKAAMEGGINRKDLFVTSKLWCTELAPDRVRPALEKTLKDLQLDYLDLYLIHWPFRLKDGAHMPPEAGEVLEFDMEGVWREMEGLVKDGLVKDIGVCNYTVAKLNRLMRSANVPPAVCQMEMHPGWKNDRIFEACKKHGIHVTAYSPLGSSEKNLAHDPLVEKVANKLDKTPGQVLLRWALQRGTSVIPKSTRDERIKENIQVFGWEIPEEDFRALCGIKDEKRVLTGEELFVNKTHGPYKSATEVWDHED
notes: monomer
Take B1: in “purified protein [1]”, the Km (commonly the concentration of substrate that gives half-maximal velocity) amounted to 1460 ± 290 µM; the kcat – broadly, the number of substrate molecules converted per active site and unit of time at saturation – is 18 s⁻¹; the kcat/Km (as a rule, the second-order rate constant that governs catalysis at low substrate concentration) amounted to 12400 M⁻¹ s⁻¹. Also, in “purified protein [2]”, the Km was determined as 100 ± 20 µM, the turnover number (kcat) came to 0.65 s⁻¹ and the specificity constant (kcat/Km) came to 6510 M⁻¹ s⁻¹. In addition, in “purified protein [3]”, the Km was found to be 940 ± 80 µM, the kcat came out at 2.21 s⁻¹ and the specificity constant (kcat/Km) came to 2350 M⁻¹ s⁻¹.
